From the Human Domainome abundance scans (Beltran et al. 2025)
± gives the uncertainty stated by the source.

B1: POU domain, class 4, transcription factor 1, residues 266 to 347; numbered along this chain, Q01851 (parent)
chain: RELEAFAERFKQRRIKLGVTQADVGSALANLKIPGVGSLSQSTICRFESLTLSHNNMIALKPILQAWLEEAEGAQREKMNKP

Variants of: B1
Test: abundance fitness (aPCA) (normalised: wild type 0, dead -1); higher = more abundant; growth selection in yeast, the domain comes from the species named
Details: Homo sapiens

Abundance fitness, by site and new letter:
E4: L -0.134 ± 0.045; M 0.04 ± 0.064; N -0.086 ± 0.097; P -0.361 ± 0.078; Q -0.035 ± 0.059; R -0.065 ± 0.034; S -0.091 ± 0.046; T -0.031 ± 0.053; W -0.057 ± 0.049; Y -0.153 ± 0.13
A5: C -0.162 ± 0.099; D -0.043 ± 0.085; F 0.042 ± 0.089; G -0.039 ± 0.036; H -0.063 ± 0.099; I 0.184 ± 0.14; K 0.042 ± 0.087; L 0.037 ± 0.044; M 0.016 ± 0.074; N 0.106 ± 0.16; P -0.451 ± 0.1; Q 0.047 ± 0.062; R 0.006 ± 0.037; S -0.005 ± 0.073; T -0.065 ± 0.059; V -0.06 ± 0.039; Y -0.171 ± 0.11
F6: C -0.478 ± 0.039; D -0.442 ± 0.041; E -0.359 ± 0.03; G -0.906 ± 0.034; I -0.318 ± 0.051; K -1 ± 0.086; L -0.362 ± 0.027; N -0.79 ± 0.098; P -0.951 ± 0.071; Q -0.622 ± 0.047; R -0.987 ± 0.042; S -0.516 ± 0.032; T -0.452 ± 0.037; V -0.378 ± 0.026; W -0.139 ± 0.026
A7: C -0.018 ± 0.037; D -1.11 ± 0.14; E -0.884 ± 0.058; F -0.721 ± 0.069; G -0.594 ± 0.028; H -0.668 ± 0.078; K -0.489 ± 0.04; L -0.656 ± 0.037; M -0.395 ± 0.042; N -0.582 ± 0.078; P -0.525 ± 0.041; Q -0.712 ± 0.056; R -0.594 ± 0.028; S -0.203 ± 0.028; T -0.138 ± 0.033; V 0.007 ± 0.025; Y -0.708 ± 0.088
E8: A -0.008 ± 0.063; C -0.238 ± 0.12; D -0.13 ± 0.16; F -0.223 ± 0.12; G -0.048 ± 0.045; H -0.164 ± 0.22; I -0.234 ± 0.12; L 0.018 ± 0.066; M -0.069 ± 0.089; N 0.063 ± 0.091; P -0.749 ± 0.2; Q -0.019 ± 0.1; R -0.002 ± 0.046; S 0.014 ± 0.071; T -0.078 ± 0.094; V 0.015 ± 0.057; W -0.284 ± 0.078; Y -0.017 ± 0.19
R9: C -0.007 ± 0.15; D -0.122 ± 0.23; E -0.019 ± 0.064; F -0.178 ± 0.13; G -0.015 ± 0.041; H -0.003 ± 0.14; I -0.004 ± 0.29; K -0.143 ± 0.16; L 0.061 ± 0.05; M 0.005 ± 0.12; N 0.012 ± 0.12; Q -0.043 ± 0.1; T 0.058 ± 0.12; V -0.047 ± 0.065; W -0.154 ± 0.062; Y -0.035 ± 0.19
F10: A -0.762 ± 0.038; C -0.867 ± 0.071; D -0.804 ± 0.076; E -0.916 ± 0.053; G -0.897 ± 0.035; H -0.92 ± 0.12; I -0.676 ± 0.065; K -0.9 ± 0.079; L -0.515 ± 0.031; M -0.56 ± 0.044; N -0.822 ± 0.093; P -0.908 ± 0.08; Q -1.04 ± 0.09; R -0.996 ± 0.044; S -0.914 ± 0.055; T -0.853 ± 0.073; W -0.237 ± 0.029; Y -0.599 ± 0.064
K11: A -0.023 ± 0.056; E -0.476 ± 0.11; F -0.627 ± 0.2; G -0.465 ± 0.061; H 0.175 ± 0.18; I -0.293 ± 0.15; L -0.406 ± 0.074; M -0.117 ± 0.08; N -0.422 ± 0.22; P -0.833 ± 0.24; Q -0.107 ± 0.12; R 0.023 ± 0.039; S -0.104 ± 0.065; T -0.017 ± 0.093; V -0.142 ± 0.056; W -0.707 ± 0.12; Y -0.642 ± 0.36
Q12: A -0.004 ± 0.03; C -0.466 ± 0.053; D -0.027 ± 0.047; E 0.015 ± 0.037; F -0.133 ± 0.044; G -0.205 ± 0.029; H -0.097 ± 0.042; I -0.144 ± 0.056; K -0.029 ± 0.039; L -0.078 ± 0.027; M -0.034 ± 0.039; N 0.031 ± 0.042; P -0.896 ± 0.079; R -0.14 ± 0.028; S -0.06 ± 0.03; T -0.021 ± 0.031; V -0.117 ± 0.03; W -0.339 ± 0.037; Y -0.13 ± 0.047
R13: A -0.026 ± 0.035; C -0.369 ± 0.048; D -0.253 ± 0.061; E -0.065 ± 0.056; F -0.203 ± 0.066; G 0.013 ± 0.033; H -0.103 ± 0.062; I -0.09 ± 0.064; K -0.048 ± 0.051; L -0.148 ± 0.037; M -0.023 ± 0.057; N -0.156 ± 0.062; P -1.06 ± 0.2; Q -0.053 ± 0.05; S 0.014 ± 0.038; T 0.008 ± 0.042; V -0.065 ± 0.035; W -0.321 ± 0.05
R14: A -0.919 ± 0.071; D -0.952 ± 0.18; F -1.07 ± 0.12; G -1.07 ± 0.081; H -1.16 ± 0.14; I -0.866 ± 0.082; K -1.09 ± 0.14; L -0.768 ± 0.045; M -0.914 ± 0.092; N -0.923 ± 0.12; P -1.13 ± 0.12; Q -1.08 ± 0.12; S -0.906 ± 0.059; V -0.932 ± 0.062; W -1.02 ± 0.098; Y -0.884 ± 0.098
I15: A -0.099 ± 0.038; C -0.048 ± 0.049; D -0.211 ± 0.06; E 0.02 ± 0.054; F -0.322 ± 0.039; G -0.286 ± 0.055; H -0.083 ± 0.037; L -0.022 ± 0.028; M 0.005 ± 0.038; N -0.113 ± 0.04; P -0.989 ± 0.084; Q -0.013 ± 0.038; R -0.037 ± 0.036; S -0.138 ± 0.029; V -0.023 ± 0.035; W -0.243 ± 0.048; Y -0.332 ± 0.046
K16: A 0.085 ± 0.034; C -0.004 ± 0.055; D 0.029 ± 0.049; E 0.063 ± 0.048; F -0.138 ± 0.039; H -0.029 ± 0.034; I -0.104 ± 0.037; L -0.071 ± 0.025; N 0.011 ± 0.035; P -0.888 ± 0.053; Q 0.027 ± 0.032; R 0.035 ± 0.034; S 0.013 ± 0.027; T -0.032 ± 0.028; W -0.177 ± 0.05; Y -0.129 ± 0.037
L17: A -0.346 ± 0.038; C -0.31 ± 0.041; E -0.804 ± 0.075; F -0.309 ± 0.039; G -0.802 ± 0.082; H -0.54 ± 0.047; I -0.126 ± 0.045; K -0.62 ± 0.052; M -0.072 ± 0.037; N -0.455 ± 0.05; P -1.06 ± 0.08; Q -0.668 ± 0.052; R -0.664 ± 0.046; S -0.608 ± 0.035; T -0.779 ± 0.058; V -0.286 ± 0.036; W -0.336 ± 0.044; Y -0.33 ± 0.038
G18: A -0.268 ± 0.17; C -0.475 ± 0.32; D -0.394 ± 0.12; E -0.332 ± 0.13; F -0.663 ± 0.32; K -0.167 ± 0.21; L -0.724 ± 0.46; M -0.639 ± 0.48; R -0.231 ± 0.15; S -0.241 ± 0.1; T -0.91 ± 0.49
V19: C -0.104 ± 0.1; D -0.308 ± 0.14; E -0.396 ± 0.081; G -0.55 ± 0.061; H -0.14 ± 0.11; I -0.012 ± 0.078; K 0.003 ± 0.061; L -0.016 ± 0.049; M 0.096 ± 0.067; P -0.827 ± 0.25; Q 0.11 ± 0.076; R -0.019 ± 0.037; S -0.062 ± 0.062; T -0.125 ± 0.068; W -0.016 ± 0.057; Y -0.027 ± 0.086
T20: A -0.052 ± 0.14; C 0.008 ± 0.36; E -0.124 ± 0.094; I -0.725 ± 0.21; L -0.078 ± 0.19; N -0.261 ± 0.44; R -0.087 ± 0.1; S -0.117 ± 0.19; V -0.567 ± 0.28
Q21: A -0.044 ± 0.046; C -0.083 ± 0.064; E -0.023 ± 0.049; F -0.072 ± 0.24; H 0.006 ± 0.1; I 0.022 ± 0.075; K 0.062 ± 0.092; M -0.111 ± 0.072; N -0.516 ± 0.38; P -0.045 ± 0.065; R -0.058 ± 0.041; S -0.09 ± 0.058; T -0.072 ± 0.055; V -0.083 ± 0.046; W -0.141 ± 0.063; Y -0.07 ± 0.1
A22: C -0.098 ± 0.27; D -0.121 ± 0.15; E 0.043 ± 0.098; G -0.017 ± 0.056; H 0.01 ± 0.14; I -0.218 ± 0.24; M -0.237 ± 0.16; N 0.11 ± 0.33; P 0.13 ± 0.28; T -0.068 ± 0.1; V -0.242 ± 0.095; W -0.038 ± 0.084; Y 0.043 ± 0.12
D23: A -0.009 ± 0.066; C -0.185 ± 0.098; E 0.027 ± 0.048; F -0.208 ± 0.12; G -0.067 ± 0.045; H -0.156 ± 0.1; L -0.281 ± 0.06; M -0.022 ± 0.1; N -0.067 ± 0.14; P -0.913 ± 0.44; Q 0.016 ± 0.063; R -0.173 ± 0.049; S -0.027 ± 0.049; T -0.118 ± 0.066; V -0.152 ± 0.05; W -0.405 ± 0.098; Y -0.115 ± 0.094
V24: A -0.241 ± 0.055; C -0.326 ± 0.1; D -0.66 ± 0.16; E -0.679 ± 0.088; F -0.337 ± 0.14; H -0.815 ± 0.37; L -0.062 ± 0.049; M -0.253 ± 0.079; N -0.531 ± 0.27; P -1.06 ± 0.23; R -0.745 ± 0.074; S -0.688 ± 0.1; T -0.544 ± 0.096
G25: A 0.04 ± 0.047; C 0.025 ± 0.066; D 0.037 ± 0.093; E 0.05 ± 0.054; F -0.119 ± 0.14; H 0.122 ± 0.16; K 0.009 ± 0.083
